Source: patent US20250302761A1 (INSTITUT NATIONAL DE LA SANT ET DE LA RECHERCHE M DICALE, published 2025)

Molecular target: FKBP2-RFP-CD63
Experiment: cell-based or functional assay

B1: FRB-NanoLuciferase-HA (other)
chain: ILWHEMWHEGLEEASRLYFGERNVKGMFEVLEPLHAMMERGPQTLKETSFNQAYGRDLMEAQEWCRKYMKSGNVKDLLQAWDLYYHVFRRISK
  EV NLuc specific activity, normalized on the 'No Drug' condition: 3.5 fold
  NLuc activity in Fraction 7 of the floatation assay, 'Drug' against 'No Drug': 4 fold
